Data: US20260274976A1 (BIO THERA SOLUTIONS, published 2026)

Experiments:
[1] = molecular target: T1, human OX40 on PG-Jurkat-hOX40-NF-κB cells (human, UniProt P43489 29-277); experiment: flow cytometry competition against OX40L-mFc on PG-Jurkat-OX40-NF-κB cells; reference is antibody KHK4083
T1 construct: whole, on cells; Jurkat cells overexpressing human OX40 that also carry the pGL6-NFκB-luc reporter; also called TNFRSF4; ACT35
T1 sequence (looked up): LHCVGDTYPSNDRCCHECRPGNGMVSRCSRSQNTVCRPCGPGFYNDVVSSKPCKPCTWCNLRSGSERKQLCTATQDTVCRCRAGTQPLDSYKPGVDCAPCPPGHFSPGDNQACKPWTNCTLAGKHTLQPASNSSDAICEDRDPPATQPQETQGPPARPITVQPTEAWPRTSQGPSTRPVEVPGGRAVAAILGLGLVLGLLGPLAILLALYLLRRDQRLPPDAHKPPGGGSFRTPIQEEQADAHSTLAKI
Description: PG-Jurkat-OX40-NF-κB cells were resuspended in 1×PBS to achieve a density of 1×10⁷ cells/mL. […] PG-Jurkat-OX40-NF-κB cells were plated in sample wells, control wells, and blank wells at 50 μL/well, and the cell count was 5×10⁵ cells/well at this point. Antibody diluents at different concentrations were added to sample wells at 50 μL/well, and the mixture was mixed well. 50 μL of 1×PBS was added to control wells and blank wells. The 96-well V-bottom plate was incubated in a refrigerator at 4° C. for 5 min. […] After the incubation was complete, the 96-well V-bottom plate was taken out. The diluted ligand solution was added to sample wells and control wells at 50 μL/well as soon as possible, and the mixture was mixed well by pipetting. […] The 96-well V-bottom plate was incubated in a refrigerator at 4° C. for 50 min. The plate was washed with 1×PBS, and the supernatant was removed for further incubation.
Anti-mFc APC (Bioss, Cat. No.: BJ01138707) was diluted with 1×PBS at a ratio of 1:800, and 100 μL of the diluted anti-mFc APC was added to each well except for blank wells to resuspend the cells. The plate was incubated in the dark in a refrigerator at 4° C. for 30 min. After the incubation, the cells were washed with 1×PBS and finally resuspended in 1×PBS at 200 μL/well for flow cytometry analysis.

[2] = molecular target: T1, human OX40 on PG-Jurkat-hOX40-NF-κB …; experiment: cell-based or functional assay

fold lower IC50 than antibody KHK4083 [1]: 2.8 times | fold lower IC50 than antibody KHK4083 in blocking OX40L-mFc activation of OX40 signals (NF-κB luciferase reporter) [2]: 4.8 times
B1: antibody M-KF (antibody, human IgG1, kappa, V domains shown)
VH: QVQLVESGGGVVQPGESLRLSCAASGFTFSSYGMHWVRQAPGKGLEWVAVIWEDGSNQYYADSVKGRFTISRDNSKNTLYLQMNSLRAEDTAVYYCAKDNQDTSPDVGIDYWGQGTLVTVSS
VL: DIQMTQSPSSLSASVGDRVTITCRASQNISPFLNWYQQKPGKAPKLLIYAAVGLQSGVPSRFSGSGSGTDFTLTISSLQPEDFATYYCQQYTDYPLTFGGGTKVEIKR
notes: also called anti-OX40 antibody
